Assay results taken from US20210230600, “NUCLEIC ACID-DRUG COMPLEX AND USE THEREOF” (Industrial Technology Research Institute, published 2021).

T1: TLR9 (Mus musculus, UniProt Q9EQU3 Q9EQU3:26-1032)
T1 sequence: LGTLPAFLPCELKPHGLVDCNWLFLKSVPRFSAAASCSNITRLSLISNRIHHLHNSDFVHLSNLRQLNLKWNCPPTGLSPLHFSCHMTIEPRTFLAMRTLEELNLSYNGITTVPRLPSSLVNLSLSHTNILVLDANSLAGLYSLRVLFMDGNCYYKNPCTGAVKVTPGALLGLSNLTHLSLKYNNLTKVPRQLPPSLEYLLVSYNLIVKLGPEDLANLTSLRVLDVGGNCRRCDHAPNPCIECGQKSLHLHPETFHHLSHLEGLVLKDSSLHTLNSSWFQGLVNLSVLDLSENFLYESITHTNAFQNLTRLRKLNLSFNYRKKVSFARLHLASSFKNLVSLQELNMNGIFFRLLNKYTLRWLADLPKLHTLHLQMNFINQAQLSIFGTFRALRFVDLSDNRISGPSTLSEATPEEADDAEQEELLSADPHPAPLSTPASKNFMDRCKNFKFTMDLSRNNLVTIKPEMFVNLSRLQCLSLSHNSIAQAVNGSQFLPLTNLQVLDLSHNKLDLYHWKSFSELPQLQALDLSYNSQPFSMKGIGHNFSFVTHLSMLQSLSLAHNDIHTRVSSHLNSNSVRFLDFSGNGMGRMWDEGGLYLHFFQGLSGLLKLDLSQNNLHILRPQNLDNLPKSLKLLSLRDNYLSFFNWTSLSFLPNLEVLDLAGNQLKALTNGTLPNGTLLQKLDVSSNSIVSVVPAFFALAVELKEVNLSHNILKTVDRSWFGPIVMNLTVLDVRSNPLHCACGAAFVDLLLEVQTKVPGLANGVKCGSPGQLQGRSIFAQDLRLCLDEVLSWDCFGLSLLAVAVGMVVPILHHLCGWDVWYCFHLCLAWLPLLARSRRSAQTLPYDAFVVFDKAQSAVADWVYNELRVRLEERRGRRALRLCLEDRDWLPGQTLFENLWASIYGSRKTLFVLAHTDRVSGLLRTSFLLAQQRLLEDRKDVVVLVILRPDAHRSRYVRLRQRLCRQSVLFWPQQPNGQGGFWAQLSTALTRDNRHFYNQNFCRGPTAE

B1: ApDC5-PS (ssDNA)
DNA: TCGAACGTTCGAACGTTCGAACGTTCGAATCACATCAACTCATTGATAGACAATGCGTCC
modifications: PS at all linkages of the CpG part
B2: ApDC5-7PS (ssDNA)
DNA: TCGAACGTTCGAACGTTCGAACGTTCGAATCACATCAACTCATTGATAGACAATGCGTCC
modifications: PS at part of the linkages of the CpG part
B3: ApDC-B21B (ssDNA)
DNA: TCGAACGTTCGAATACTCATTGATAGACAATGCGTTTCGAACGTTCGAAT
modifications: PS at all linkages of the CpG part
B4: ApDC-A33B (ssDNA)
DNA: TTTCGAACGTTCGAACGCCACATCAACTCATTGATAGACAATGCGTCCACCGTTCGAACGTTCGATT
modifications: PS at part of the linkages of the CpG part
B5: ApDC-A21A (ssDNA)
DNA: TCGAACGTTCGAACGACTCATTGATAGACAATGCGTTCGAACGTTCGAACG
modifications: PS at all linkages of the CpG part
B6: ApDC-A21B (ssDNA)
DNA: TCGAACGTTCGAACGACTCATTGATAGACAATGCGTTTCGAACGTTCGAAT
modifications: PS at all linkages of the CpG part
B7: PDL1-CpG30-PS (ssDNA)
DNA: CACATCAACTCATTGATAGACAATGCGTCCTCGAACGTTCGAACGTTCGAACGTTCGAAT
modifications: PS at all linkages of the CpG part
B8: CpG-L0-PS (ssDNA)
DNA: TCGAACGTTCGAACGTTCGAACGTTCGAAT
modifications: PS at all linkages
B9: PDL1-CpG29-9PS (ssDNA)
DNA: CACATCAACTCATTGATAGACAATGCGTCCTTCGAACGTTCGAACGTTCGAACGTTCGAA
modifications: PS at part of the linkages of the CpG part

Experiments:
Details in all cases: tags: HEK-Blue mouse TLR9 reporter cells, InvivoGen
TLR9 [1] = molecular target: T1, TLR9; test: cell_activity; SEAP reporter activation, 37 C; 5.5 nM in FIG. 5 experiment
Protocol: (§1) HEK-Blue cells expressing mouse TLR9 (InvivoGen) were cultured in a complete DMEM medium (Dulbecco's modified Eagle's medium), which was supplemented with 100 μg/ml Normocin, 30 μg/ml Blasticidin, and 100 μg/ml Zeocin (all InvivoGen). HEK-Blue cells contained a secreted alkaline phosphatase (SEAP) reporting system, which produces colorimetric changes after interacting with TLR9.
(§2) HEK-Blue Detection mixture (cell culture medium for SEAP detection, InvivoGen) is used to detect the presence of SEAP, which is produced by stimulation of a TLR9 ligand through NF-κB activation. Detection mixture contained nutrients for cell growth and color substrate, whose color will change when it is hydrolyzed by SEAP. When HEK 293 cells expressing mouse TLR9 (InvivoGen) reached 60-80% confluency, they were collected, centrifuged and resuspended in Detection mixture. Cells (72,000) were seeded in each well of a 96-well plate (180 μl). The cells were then treated in combination with 20 μl PBS (unstimulated; as a negative control group), “CpG-L0-PS” (as a positive control group) or nucleic acid-drug complex samples of varying concentrations in PBS in duplicate wells, and incubated for 24 hours at 37° C. in 5% CO₂. The plate was read spectrophotometrically by using a multimode plate reader (Tecan, Infinite™ M200 PRO, Männedorf, Switzerland) at a wavelength of 620 nm to 655 nm.

TLR9 [2] = molecular target: T1, TLR9; test: cell_activity; SEAP reporter activation, 37 C
Protocol: as §1, §2

TLR9 [3] = molecular target: T1, TLR9; test: cell_activity; SEAP reporter activation, 37 C; remark: listed apart in the source
Protocol: as §1, §2
The experimental content is substantially the same as that of FIG. 4. The sample “CpG-L0-PS” in FIG. 5 corresponds to SEQ ID NO: 10 (which was not connected with anti-PD-L1 aptamer), and all phosphodiester bonds in the CpG oligonucleotide sequence were modified to phosphorothioate bonds.

TLR9 [4] = molecular target: T1, TLR9; test: cell_activity; SEAP reporter activation, 37 C; 1.3 nM in FIG. 5 experiment
Protocol: as §1, §2

TLR9 [5] = molecular target: T1, TLR9; test: cell_activity; SEAP reporter activation, 37 C; 2.1 nM in FIG. 5 experiment
Protocol: as §1, §2

Binder | EC50 (TLR9 [2]) | EC50 (TLR9 [3]) | other results
B1 |  |  | EC50 (TLR9 [1]): 2.48 nM
B2 | 72.2 nM |  | 
B3 |  | 0.6 nM | 
B4 |  | 16400 nM | 
B5 |  | 0.6 nM | 
B6 |  |  | EC50 (TLR9 [4]): 0.77 nM
B7 | 2.36 nM |  | 
B8 |  |  | EC50 (TLR9 [5]): 2.09 nM
B9 | 149 nM |  | 
